Measured values as given in publication PMC9242541, “Importance of Rare DPYD Genetic Polymorphisms for 5-Fluorouracil Therapy in the Japanese Population” (Frontiers in Pharmacology, 2022).

Biological target: the molecule itself
Experiment: native gel or EMSA; blue native PAGE (Tris-glycine buffer, 5%-20% polyacrylamide gels), 9 μg of the soluble fraction of transfected 293FT cells per lane, immunoblot with polyclonal anti-human DPD antibody; monomer to dimer

Protein	stoichiometry N
DPD variant M321I (enzyme, human, UniProt Q12882 4-1025, looked up, dihydropyrimidine dehydrogenase (DPD), human, DPYD cDNA with a variant found in Japanese individuals; made by site-directed mutagenesis of the wild-type construct; also called 963G > A; source: 293FT cells, transfected (pcDNA3.4), soluble fraction) VLSKDSADIESILALNPRTQTHATLCSTSAKKLDKKHWKRNPDKNCFNCEKLENNFDDIKHTTLGERGALREAMRCLKCADAPCQKSCPTNLDIKSFITSIANKNYYGAAKMIFSDNPLGLTCGMVCPTSDLCVGGCNLYATEEGPINIGGLQQFATEVFKAMSIPQIRNPSLPPPEKMSEAYSAKIALFGAGPASISCASFLARLGYSDITIFEKQEYVGGLSTSEIPQFRLPYDVVNFEIELMKDLGVKIICGKSLSVNEMTLSTLKEKGYKAAFIGIGLPEPNKDAIFQGLTQDQGFYTSKDFLPLVAKGSKAGICACHSPLPSIRGVVIVLGAGDTAFDCATSALRCGARRVFIVFRKGFVNIRAVPEEMELAKEEKCEFLPFLSPRKVIVKGGRIVAMQFVRTEQDETGKWNEDEDQMVHLKADVVISAFGSVLSDPKVKEALSPIKFNRWGLPEVDPETMQTSEAWVFAGGDVVGLANTTVESVNDGKQASWYIHKYVQSQYGASVSAKPELPLFYTPIDLVDISVEMAGLKFINPFGLASATPATSTSMIRRAFEAGWGFALTKTFSLDKDIVTNVSPRIIRGTTSGPMYGPGQSSFLNIELISEKTAAYWCQSVTELKADFPDNIVIASIMCSYNKNDWTELAKKSEDSGADALELNLSCPHGMGERGMGLACGQDPELVRNICRWVRQAVQIPFFAKLTPNVTDIVSIARAAKEGGANGVTATNTVSGLMGLKSDGTPWPAVGIAKRTTYGGVSGTAIRPIALRAVTSIARALPGFPILATGGIDSAESGLQFLHSGASVLQVCSAIQNQDFTVIEDYCTGLKALLYLKSIEELQDWDGQSPATVSHQKGKPVPRIAELMDKKLPSFGPYLEQRKKIIAENKIRLKEQNVAFSPLKRNCFIPKRPIPTIKDVIGKALQYLGTFGELSNVEQVVAMIDEEMCINCGKCYMTCNDSGYQAIQFDPETHLPTITDTCTGCTLCLSVCPIVDCIKMVSRTTPYEPKRGVPLSVNPVC	2
DPD variant R353C (enzyme, human, UniProt Q12882 4-1025, looked up, dihydropyrimidine dehydrogenase (DPD), human, DPYD cDNA with a variant found in Japanese individuals; made by site-directed mutagenesis of the wild-type construct; expression after SDS-PAGE was below the lower limit of quantification; also called 1057C > T; source: 293FT cells, transfected (pcDNA3.4), soluble fraction) VLSKDSADIESILALNPRTQTHATLCSTSAKKLDKKHWKRNPDKNCFNCEKLENNFDDIKHTTLGERGALREAMRCLKCADAPCQKSCPTNLDIKSFITSIANKNYYGAAKMIFSDNPLGLTCGMVCPTSDLCVGGCNLYATEEGPINIGGLQQFATEVFKAMSIPQIRNPSLPPPEKMSEAYSAKIALFGAGPASISCASFLARLGYSDITIFEKQEYVGGLSTSEIPQFRLPYDVVNFEIELMKDLGVKIICGKSLSVNEMTLSTLKEKGYKAAFIGIGLPEPNKDAIFQGLTQDQGFYTSKDFLPLVAKGSKAGMCACHSPLPSIRGVVIVLGAGDTAFDCATSALCCGARRVFIVFRKGFVNIRAVPEEMELAKEEKCEFLPFLSPRKVIVKGGRIVAMQFVRTEQDETGKWNEDEDQMVHLKADVVISAFGSVLSDPKVKEALSPIKFNRWGLPEVDPETMQTSEAWVFAGGDVVGLANTTVESVNDGKQASWYIHKYVQSQYGASVSAKPELPLFYTPIDLVDISVEMAGLKFINPFGLASATPATSTSMIRRAFEAGWGFALTKTFSLDKDIVTNVSPRIIRGTTSGPMYGPGQSSFLNIELISEKTAAYWCQSVTELKADFPDNIVIASIMCSYNKNDWTELAKKSEDSGADALELNLSCPHGMGERGMGLACGQDPELVRNICRWVRQAVQIPFFAKLTPNVTDIVSIARAAKEGGANGVTATNTVSGLMGLKSDGTPWPAVGIAKRTTYGGVSGTAIRPIALRAVTSIARALPGFPILATGGIDSAESGLQFLHSGASVLQVCSAIQNQDFTVIEDYCTGLKALLYLKSIEELQDWDGQSPATVSHQKGKPVPRIAELMDKKLPSFGPYLEQRKKIIAENKIRLKEQNVAFSPLKRNCFIPKRPIPTIKDVIGKALQYLGTFGELSNVEQVVAMIDEEMCINCGKCYMTCNDSGYQAIQFDPETHLPTITDTCTGCTLCLSVCPIVDCIKMVSRTTPYEPKRGVPLSVNPVC	2
DPD variant H25R (enzyme, human, UniProt Q12882 4-1025, looked up, dihydropyrimidine dehydrogenase (DPD), human, DPYD cDNA with a variant found in Japanese individuals; made by site-directed mutagenesis of the wild-type construct; also called 74A > G; source: 293FT cells, transfected (pcDNA3.4), soluble fraction) VLSKDSADIESILALNPRTQTRATLCSTSAKKLDKKHWKRNPDKNCFNCEKLENNFDDIKHTTLGERGALREAMRCLKCADAPCQKSCPTNLDIKSFITSIANKNYYGAAKMIFSDNPLGLTCGMVCPTSDLCVGGCNLYATEEGPINIGGLQQFATEVFKAMSIPQIRNPSLPPPEKMSEAYSAKIALFGAGPASISCASFLARLGYSDITIFEKQEYVGGLSTSEIPQFRLPYDVVNFEIELMKDLGVKIICGKSLSVNEMTLSTLKEKGYKAAFIGIGLPEPNKDAIFQGLTQDQGFYTSKDFLPLVAKGSKAGMCACHSPLPSIRGVVIVLGAGDTAFDCATSALRCGARRVFIVFRKGFVNIRAVPEEMELAKEEKCEFLPFLSPRKVIVKGGRIVAMQFVRTEQDETGKWNEDEDQMVHLKADVVISAFGSVLSDPKVKEALSPIKFNRWGLPEVDPETMQTSEAWVFAGGDVVGLANTTVESVNDGKQASWYIHKYVQSQYGASVSAKPELPLFYTPIDLVDISVEMAGLKFINPFGLASATPATSTSMIRRAFEAGWGFALTKTFSLDKDIVTNVSPRIIRGTTSGPMYGPGQSSFLNIELISEKTAAYWCQSVTELKADFPDNIVIASIMCSYNKNDWTELAKKSEDSGADALELNLSCPHGMGERGMGLACGQDPELVRNICRWVRQAVQIPFFAKLTPNVTDIVSIARAAKEGGANGVTATNTVSGLMGLKSDGTPWPAVGIAKRTTYGGVSGTAIRPIALRAVTSIARALPGFPILATGGIDSAESGLQFLHSGASVLQVCSAIQNQDFTVIEDYCTGLKALLYLKSIEELQDWDGQSPATVSHQKGKPVPRIAELMDKKLPSFGPYLEQRKKIIAENKIRLKEQNVAFSPLKRNCFIPKRPIPTIKDVIGKALQYLGTFGELSNVEQVVAMIDEEMCINCGKCYMTCNDSGYQAIQFDPETHLPTITDTCTGCTLCLSVCPIVDCIKMVSRTTPYEPKRGVPLSVNPVC	2
DPD variant G366A (enzyme, human, UniProt Q12882 4-1025, looked up, dihydropyrimidine dehydrogenase (DPD), human, DPYD cDNA with a variant found in Japanese individuals; made by site-directed mutagenesis of the wild-type construct; also called 1097G > C; source: 293FT cells, transfected (pcDNA3.4), soluble fraction) VLSKDSADIESILALNPRTQTHATLCSTSAKKLDKKHWKRNPDKNCFNCEKLENNFDDIKHTTLGERGALREAMRCLKCADAPCQKSCPTNLDIKSFITSIANKNYYGAAKMIFSDNPLGLTCGMVCPTSDLCVGGCNLYATEEGPINIGGLQQFATEVFKAMSIPQIRNPSLPPPEKMSEAYSAKIALFGAGPASISCASFLARLGYSDITIFEKQEYVGGLSTSEIPQFRLPYDVVNFEIELMKDLGVKIICGKSLSVNEMTLSTLKEKGYKAAFIGIGLPEPNKDAIFQGLTQDQGFYTSKDFLPLVAKGSKAGMCACHSPLPSIRGVVIVLGAGDTAFDCATSALRCGARRVFIVFRKAFVNIRAVPEEMELAKEEKCEFLPFLSPRKVIVKGGRIVAMQFVRTEQDETGKWNEDEDQMVHLKADVVISAFGSVLSDPKVKEALSPIKFNRWGLPEVDPETMQTSEAWVFAGGDVVGLANTTVESVNDGKQASWYIHKYVQSQYGASVSAKPELPLFYTPIDLVDISVEMAGLKFINPFGLASATPATSTSMIRRAFEAGWGFALTKTFSLDKDIVTNVSPRIIRGTTSGPMYGPGQSSFLNIELISEKTAAYWCQSVTELKADFPDNIVIASIMCSYNKNDWTELAKKSEDSGADALELNLSCPHGMGERGMGLACGQDPELVRNICRWVRQAVQIPFFAKLTPNVTDIVSIARAAKEGGANGVTATNTVSGLMGLKSDGTPWPAVGIAKRTTYGGVSGTAIRPIALRAVTSIARALPGFPILATGGIDSAESGLQFLHSGASVLQVCSAIQNQDFTVIEDYCTGLKALLYLKSIEELQDWDGQSPATVSHQKGKPVPRIAELMDKKLPSFGPYLEQRKKIIAENKIRLKEQNVAFSPLKRNCFIPKRPIPTIKDVIGKALQYLGTFGELSNVEQVVAMIDEEMCINCGKCYMTCNDSGYQAIQFDPETHLPTITDTCTGCTLCLSVCPIVDCIKMVSRTTPYEPKRGVPLSVNPVC	2
DPD variant C354Y (enzyme, human, UniProt Q12882 4-1025, looked up, dihydropyrimidine dehydrogenase (DPD), human, DPYD cDNA with a variant found in Japanese individuals; made by site-directed mutagenesis of the wild-type construct; also called 1061G > A; source: 293FT cells, transfected (pcDNA3.4), soluble fraction) VLSKDSADIESILALNPRTQTHATLCSTSAKKLDKKHWKRNPDKNCFNCEKLENNFDDIKHTTLGERGALREAMRCLKCADAPCQKSCPTNLDIKSFITSIANKNYYGAAKMIFSDNPLGLTCGMVCPTSDLCVGGCNLYATEEGPINIGGLQQFATEVFKAMSIPQIRNPSLPPPEKMSEAYSAKIALFGAGPASISCASFLARLGYSDITIFEKQEYVGGLSTSEIPQFRLPYDVVNFEIELMKDLGVKIICGKSLSVNEMTLSTLKEKGYKAAFIGIGLPEPNKDAIFQGLTQDQGFYTSKDFLPLVAKGSKAGMCACHSPLPSIRGVVIVLGAGDTAFDCATSALRYGARRVFIVFRKGFVNIRAVPEEMELAKEEKCEFLPFLSPRKVIVKGGRIVAMQFVRTEQDETGKWNEDEDQMVHLKADVVISAFGSVLSDPKVKEALSPIKFNRWGLPEVDPETMQTSEAWVFAGGDVVGLANTTVESVNDGKQASWYIHKYVQSQYGASVSAKPELPLFYTPIDLVDISVEMAGLKFINPFGLASATPATSTSMIRRAFEAGWGFALTKTFSLDKDIVTNVSPRIIRGTTSGPMYGPGQSSFLNIELISEKTAAYWCQSVTELKADFPDNIVIASIMCSYNKNDWTELAKKSEDSGADALELNLSCPHGMGERGMGLACGQDPELVRNICRWVRQAVQIPFFAKLTPNVTDIVSIARAAKEGGANGVTATNTVSGLMGLKSDGTPWPAVGIAKRTTYGGVSGTAIRPIALRAVTSIARALPGFPILATGGIDSAESGLQFLHSGASVLQVCSAIQNQDFTVIEDYCTGLKALLYLKSIEELQDWDGQSPATVSHQKGKPVPRIAELMDKKLPSFGPYLEQRKKIIAENKIRLKEQNVAFSPLKRNCFIPKRPIPTIKDVIGKALQYLGTFGELSNVEQVVAMIDEEMCINCGKCYMTCNDSGYQAIQFDPETHLPTITDTCTGCTLCLSVCPIVDCIKMVSRTTPYEPKRGVPLSVNPVC	2
DPD variant V335M (enzyme, human, UniProt Q12882 4-1025, looked up, dihydropyrimidine dehydrogenase (DPD), human, DPYD cDNA with a variant found in Japanese individuals; made by site-directed mutagenesis of the wild-type construct; also called 1003G > A; source: 293FT cells, transfected (pcDNA3.4), soluble fraction) VLSKDSADIESILALNPRTQTHATLCSTSAKKLDKKHWKRNPDKNCFNCEKLENNFDDIKHTTLGERGALREAMRCLKCADAPCQKSCPTNLDIKSFITSIANKNYYGAAKMIFSDNPLGLTCGMVCPTSDLCVGGCNLYATEEGPINIGGLQQFATEVFKAMSIPQIRNPSLPPPEKMSEAYSAKIALFGAGPASISCASFLARLGYSDITIFEKQEYVGGLSTSEIPQFRLPYDVVNFEIELMKDLGVKIICGKSLSVNEMTLSTLKEKGYKAAFIGIGLPEPNKDAIFQGLTQDQGFYTSKDFLPLVAKGSKAGMCACHSPLPSIRGVMIVLGAGDTAFDCATSALRCGARRVFIVFRKGFVNIRAVPEEMELAKEEKCEFLPFLSPRKVIVKGGRIVAMQFVRTEQDETGKWNEDEDQMVHLKADVVISAFGSVLSDPKVKEALSPIKFNRWGLPEVDPETMQTSEAWVFAGGDVVGLANTTVESVNDGKQASWYIHKYVQSQYGASVSAKPELPLFYTPIDLVDISVEMAGLKFINPFGLASATPATSTSMIRRAFEAGWGFALTKTFSLDKDIVTNVSPRIIRGTTSGPMYGPGQSSFLNIELISEKTAAYWCQSVTELKADFPDNIVIASIMCSYNKNDWTELAKKSEDSGADALELNLSCPHGMGERGMGLACGQDPELVRNICRWVRQAVQIPFFAKLTPNVTDIVSIARAAKEGGANGVTATNTVSGLMGLKSDGTPWPAVGIAKRTTYGGVSGTAIRPIALRAVTSIARALPGFPILATGGIDSAESGLQFLHSGASVLQVCSAIQNQDFTVIEDYCTGLKALLYLKSIEELQDWDGQSPATVSHQKGKPVPRIAELMDKKLPSFGPYLEQRKKIIAENKIRLKEQNVAFSPLKRNCFIPKRPIPTIKDVIGKALQYLGTFGELSNVEQVVAMIDEEMCINCGKCYMTCNDSGYQAIQFDPETHLPTITDTCTGCTLCLSVCPIVDCIKMVSRTTPYEPKRGVPLSVNPVC	2
